Assay results: patent US9494585B2, “Tools for the identification of Lingo-1, Lingo-2, Lingo-3 and Lingo-4 ligands, and uses thereof” (CENTRE NATIONAL DE LA RECHERCHE SCIENTIFIQUE-CNRS, priority 2010, dated 2016)

Biological target: T1, Lingo-1-RLuc/Lingo-1-YFP dimer (Homo sapiens, UniProt Q96FE5)
T1 construct: expressed in transfected cells; host or cells: HEK-293 (transient calcium phosphate transfection)
Assay: BRET measurement of Lingo-1 dimerization (Lingo-1-RLuc/Lingo-1-YFP) on live transfected HEK-293 cells
Type: cell-based
Conditions: for BRET signal obtained between Lingo-1-RLuc and Lingo-1-YFP: HEK-293, HA-tagged construct co-expressed (800 ng), constant donor/acceptor ratio, 48 h after transfection, p<0.001 vs control
Protocol: For the BRET experiments, the HEK-293 cells cultured in 6-well plates, pre-treated with collagen, are transiently transfected using the calcium phosphate technique. Briefly, the plasmid DNA is mixed into a phosphate buffer (2×BBS, composed in particular of 50 mM BES (Cat No. B4554, Sigma), 280 mM NaCl, 1.5 mM Na2HPO4, adjusted to pH 6.95) with calcium chloride (2.5 M). After incubation for 15 minutes, the precipitate obtained is applied to the cells for 24 hours. The cells are then rinsed and incubated for a further 24 hours in a culture medium without antibiotics.
The cells are resuspended in a physiological buffer (HBSS for Hank's Buffered Salt Solution (Cat No. 14025100, Gibco, composed in particular of calcium chloride, magnesium chloride, magnesium sulfate, potassium chloride, monobasic potassium phosphate, sodium bicarbonate, sodium chloride, anhydrous dibasic sodium phosphate)) 48 hours after transfection and distributed into 96-well plates (100 000 to 200 000 cells per well) or into 384-well plates (20 000 to 40 000 cells per well). The fluorescence and luminescence readings are carried out at ambient temperature on a microplate reader, Mithras LB 940 (Berthold). The yield from transfection of the Lingo-1-eYFP, Lingo-2-eYFP, Lingo-3-eYFP or Lingo-4-eYFP construct is evaluated by reading the fluorescence of the eYFP emitted at 530-540 nm after excitation at 480 nm. The yield from transfection of the Lingo-1-RLuc, Lingo-2-RLuc, Lingo-3-RLuc or Lingo-4-RLuc construct is evaluated by reading the luminescence (1 second) obtained immediately after the addition of the coelenterazine substrate (5 μM).
The measurement of the BRET signal is carried out immediately after the addition of coelenterazine. […] The energy transfer which takes place in the fusion protein between the Rluc and the eYFP causes the appearance of a fluorescence signal with a maximum emission at 530-540 nm, characteristic of the spectral properties of eYFP. […]
The BRET reading was carried out at ambient temperature on a microplate reader, Mithras LB 940 (Berthold), using the new BRET filters. […]

B1: DN-Lingo-1-HA: HA-tagged dominant negative of Lingo-1 (amino acids 1-577, without cytoplasmic portion), known Lingo-1 inhibitor (protein)
chain: CPPRCECSAQDRAVLCHRKRFVAVPEGIPTETRLLDLGKNRIKTLNQDEFASFPHLEELELNENIVSAVEPGAFNNLFNLRTLGLRSNRLKLIPLGVFTGLSNLTKLDISENKIVILLDYMFQDLYNLKSLEVGDNDLVYISHRAFSGLNSLEQLTLEKCNLTSIPTEALSHLHGLIVLRLRHLNINAIRDYSFKRLYRLKVLEISHWPYLDTMTPNCLYGLNLTSLSITHCNLTAVPYLAVRHLVYLRFLNLSYNPISTIEGSMLHELLRLQEIQLVGGQLAVVEPYAFRGLNYLRVLNVSGNQLTTLEESVFHSVGNLETLILDSNPLACDCRLLWVFRRRWRLNFNRQQPTCATPEFVQGKEFKDFPDVLLPNYFTCRRARIRDRKAQQVFVDEGHTVQFVCRADGDPPPAILWLSPRKHLVSAKSNGRLTVFPDGTLEVRYAQVQDNGTYLCIAANAGGNDSMPAHLHVRSYSPDWPHQPNKTFAFISNQPGEGEANSTRATVPFPFDIKTLIIATTMGFISFLGVVLFCLV
modifications: left off: small tags and cut ends
For B1, the “BRET signal obtained between Lingo-1-RLuc and Lingo-1-YFP” value was “significantly decreased” and the “BRET signal obtained between the Lingo-1-RLuc and Lingo-1-YFP proteins” value (HEK-293, Lingo-1-RLuc 250 ng/Lingo-1-YFP 1500 ng, new filters, HA-tagged protein at 0-2600 ng plasmid) was “significantly decreased”.

B2: Lingo-1-HA: whole human Lingo-1 protein (amino acids 1-620) tagged with HA (protein)
chain: CPPRCECSAQDRAVLCHRKRFVAVPEGIPTETRLLDLGKNRIKTLNQDEFASFPHLEELELNENIVSAVEPGAFNNLFNLRTLGLRSNRLKLIPLGVFTGLSNLTKLDISENKIVILLDYMFQDLYNLKSLEVGDNDLVYISHRAFSGLNSLEQLTLEKCNLTSIPTEALSHLHGLIVLRLRHLNINAIRDYSFKRLYRLKVLEISHWPYLDTMTPNCLYGLNLTSLSITHCNLTAVPYLAVRHLVYLRFLNLSYNPISTIEGSMLHELLRLQEIQLVGGQLAVVEPYAFRGLNYLRVLNVSGNQLTTLEESVFHSVGNLETLILDSNPLACDCRLLWVFRRRWRLNFNRQQPTCATPEFVQGKEFKDFPDVLLPNYFTCRRARIRDRKAQQVFVDEGHTVQFVCRADGDPPPAILWLSPRKHLVSAKSNGRLTVFPDGTLEVRYAQVQDNGTYLCIAANAGGNDSMPAHLHVRSYSPDWPHQPNKTFAFISNQPGEGEANSTRATVPFPFDIKTLIIATTMGFISFLGVVLFCLVLLFLWSRGKGNTKHNIEIEYVPRKSDAGISSADAPRKFNMKMI
modifications: left off: small tags and cut ends
notes: whole human Lingo-1 protein (amino acids 1-620) tagged with HA
B2 was tested, and the “BRET signal obtained between Lingo-1-RLuc and Lingo-1-YFP” value was “significantly decreased”.
